In patent US20060292151A1 (published 2006):

biological target: T1, HCV pseudovirus particles (HCVpp) (hepatitis C virus isolate H77, UniProt P27958 192-383; P27958 384-746); test: HCVpp supernatant on HeLa-SIGN transfectants, cell-bound p24 by ELISA
T1 construct: A pseudovirus particle (HIV-1 NL4.3 luciferase core) that carries E1/E2 on its envelope; Putative splice acceptor sites changed by conservative mutagenesis; also called HIV-1 particles pseudotyped with HCV E1/E2 envelope glycoproteins

Row | Binder | binding result
1 | L-SIGN-9 (receptor, Expressed whole on the surface of stably transfected HeLa cells; also called L-SIGN isoform containing 9 tandem repeats; 9-repeat form of L-SIGN) MSDSKEPRVQQLGLLEEDPTTSGIRLFPRDFQFQQIHGHKSSTGCLGHGALVLQLLSFMLLAGVLVAILVQVSKVPSSLSQEQSEQDAIYQNLTQLKAAVGELSEKSKLQEIYQELTQLKAAVGELPEKSKLQEIYQELTRLKAAVGELPEKSKLQEIYQELTRLKAAVGELPEKSKLQEIYQELTRLKAAVGELPEKSKLQEIYQELTRLKAAVGELPEKSKLQEIYQELTRLKAAVGELPEKSKLQEIYQELTELKAAVGELPEKSKLQEIYQELTQLKAAVGELPDQSKQQQIYQELTDLKTAFERLCRHCPKDWTFFQGNCYFMSNSQRNWHDSVTACQEVRAQLVVIKTAEEQNFLQLQTSRSNRFSWMGLSDLNQEGTWQWVDGSPLSPSFQRYWNSGEPNNSGNEDCAEFSGSGWNDNRCDVDNYWICKKPAACFRDE | binds
2 | L-SIGN-3 (receptor, Expressed whole on the surface of stably transfected HeLa cells; Encodes tandem repeats 1, 3 and 7; also called L-SIGN isoform containing 3 tandem repeats; 3-repeat form of L-SIGN) MSDSKEPRVQQLGLLEEDPTTSGIRLFPRDFQFQQIHGHKSSTGCLGHGALVLQLLSFMLLAGVLVAILVQVSKVPSSLSQEQSEQDAIYQNLTQLKAAVGELSEKSKLQEIYQELTRLKAAVGELPEKSKLQEIYQELTQLKAAVGELPDQSKQQQIYQELTDLKTAFERLCRHCPKDWTFFQGNCYFMSNSQRNWHDSVTACQEVRAQLVVIKTAEEQNFLQLQTSRSNRFSWMGLSDLNQEGTWQWVDGSPLSPSFQRYWNSGEPNNSGNEDCAEFSGSGWNDNRCDVDNYWICKKPAACFRDE | binds
3 | L-SIGN-4 (receptor, Expressed whole on the surface of stably transfected HeLa cells; Encodes repeats 1, 3, 4 and 7; also called L-SIGN isoform containing 4 tandem repeats; 4-repeat form of L-SIGN) MSDSKEPRVQQLGLLEEDPTTSGIRLFPRDFQFQQIHGHKSSTGCLGHGALVLQLLSFMLLAGVLVAILVQVSKVPSSLSQEQSEQDAIYQNLTQLKAAVGELSEKSKLQEIYQELTRLKAAVGELPEKSKLQEIYQELTRLKAAVGELPEKSKLQEIYQELTQLKAAVGELPDQSKQQQIYQELTDLKTAFERLCRHCPKDWTFFQGNCYFMSNSQRNWHDSVTACQEVRAQLVVIKTAEEQNFLQLQTSRSNRFSWMGLSDLNQEGTWQWVDGSPLSPSFQRYWNSGEPNNSGNEDCAEFSGSGWNDNRCDVDNYWICKKPAACFRDE | binds
4 | L-SIGN-5 (receptor, Expressed whole on the surface of stably transfected HeLa cells; Encodes repeats 1-4 and 7; also called L-SIGN isoform containing 5 tandem repeats; 5-repeat form of L-SIGN) MSDSKEPRVQQLGLLEEDPTTSGIRLFPRDFQFQQIHGHKSSTGCLGHGALVLQLLSFMLLAGVLVAILVQVSKVPSSLSQEQSEQDAIYQNLTQLKAAVGELSEKSKLQEIYQELTQLKAAVGELPEKSKLQEIYQELTRLKAAVGELPEKSKLQEIYQELTRLKAAVGELPEKSKLQEIYQELTQLKAAVGELPDQSKQQQIYQELTDLKTAFERLCRHCPKDWTFFQGNCYFMSNSQRNWHDSVTACQEVRAQLVVIKTAEEQNFLQLQTSRSNRFSWMGLSDLNQEGTWQWVDGSPLSPSFQRYWNSGEPNNSGNEDCAEFSGSGWNDNRCDVDNYWICKKPAACFRDE | binds
